Measurements from patent US20190263876A1 (published 2019).
Where two headings read alike, the source gives them in different places.

What was measured:
Activin A [1] = target: T1, Activin A (UniProt P08476); assay: cell-based or functional assay
T1 sequence (looked up): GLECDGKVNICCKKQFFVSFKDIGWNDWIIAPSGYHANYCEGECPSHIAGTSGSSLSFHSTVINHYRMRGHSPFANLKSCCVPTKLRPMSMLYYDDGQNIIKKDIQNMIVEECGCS

GDF11 [2] = target: T2, GDF11 (UniProt O95390 299-407); assay: cell-based or functional assay
T2 construct: also called Growth and Differentiation Factor-11; BMP11
T2 sequence (looked up): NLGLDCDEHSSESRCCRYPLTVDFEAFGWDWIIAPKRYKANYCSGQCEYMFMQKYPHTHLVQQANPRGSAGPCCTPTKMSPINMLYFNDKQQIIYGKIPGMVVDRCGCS

Activin A [3] = target: T1, Activin A; assay: cell-based or functional assay; remark: listed apart in the source
GDF11 [4] = target: T2, GDF11; assay: cell-based or functional assay; remark: listed apart in the source
GDF11 [5] = target: T2, GDF11; assay: BiaCore; ligand coupled to the device, receptor flowed

B1: ActRIIB(20-128)-hFc (Fc fusion, not shown: a dimerising Fc or GST)
chain: GRGEAETRECIYYNANWELERTNQSGLERCEGEQDKRLHCYASWRNSSGTIELVKKGCWLDDFNCYDRQECVATEENPQVYFCCCEGNFCNERFTHLPEAGGPEVTYEP
**Q.** With B1 as the binder, how does the IC50 (ng/mL), Activin, reporter assay, conditioned media (Activin A [1]) read?
**A.** Its IC50 (ng/mL), Activin, reporter assay, conditioned media is 158 ng/mL.

**Q.** And the IC50 (ng/mL), GDF-11, reporter assay, conditioned media (GDF11 [2])?
**A.** Its IC50 (ng/mL), GDF-11, reporter assay, conditioned media is 130 ng/mL.

B2: ActRIIB(20-131)-hFc (Fc fusion, not shown: a dimerising Fc or GST)
chain: GRGEAETRECIYYNANWELERTNQSGLERCEGEQDKRLHCYASWRNSSGTIELVKKGCWLDDFNCYDRQECVATEENPQVYFCCCEGNFCNERFTHLPEAGGPEVTYEPPPT
**Q.** With B2 as the binder, how does the IC50 (ng/mL), Activin, reporter assay, conditioned media (Activin A [1]) read?
**A.** The IC50 (ng/mL), Activin, reporter assay, conditioned media was 44 ng/mL.

**Q.** What about the IC50 (ng/mL), GDF-11, reporter assay, conditioned media (GDF11 [2]) of the same binder?
**A.** Its IC50 (ng/mL), GDF-11, reporter assay, conditioned media is 120 ng/mL.

**Q.** And the IC50 (ng/mL), Activin, reporter assay, conditioned media (Activin A [3])?
**A.** Its IC50 (ng/mL), Activin, reporter assay, conditioned media is 201 ng/mL.

**Q.** And the IC50 (ng/mL), GDF-11, reporter assay, conditioned media (GDF11 [4])?
**A.** Its IC50 (ng/mL), GDF-11, reporter assay, conditioned media is 183 ng/mL.

B3: ActRIIB(21-131)-hFc (Fc fusion, not shown: a dimerising Fc or GST)
chain: RGEAETRECIYYNANWELERTNQSGLERCEGEQDKRLHCYASWRNSSGTIELVKKGCWLDDFNCYDRQECVATEENPQVYFCCCEGNFCNERFTHLPEAGGPEVTYEPPPT
**Q.** How did the IC50 (ng/mL), Activin, reporter assay, conditioned media (Activin A [3]) turn out when B3 was run?
**A.** The IC50 (ng/mL), Activin, reporter assay, conditioned media was 325 ng/mL.

**Q.** What about the IC50 (ng/mL), GDF-11, reporter assay, conditioned media (GDF11 [4]) of the same binder?
**A.** Its IC50 (ng/mL), GDF-11, reporter assay, conditioned media is 121 ng/mL.

B4: ActRIIB(22-131)-hFc (Fc fusion, not shown: a dimerising Fc or GST)
chain: GEAETRECIYYNANWELERTNQSGLERCEGEQDKRLHCYASWRNSSGTIELVKKGCWLDDFNCYDRQECVATEENPQVYFCCCEGNFCNERFTHLPEAGGPEVTYEPPPT
**Q.** B4 was tested. Which IC50 (ng/mL), Activin, reporter assay, conditioned media (Activin A [3]) did it give?
**A.** The IC50 (ng/mL), Activin, reporter assay, conditioned media was 100 ng/mL.

**Q.** What about the IC50 (ng/mL), GDF-11, reporter assay, conditioned media (GDF11 [4]) of the same binder?
**A.** The IC50 (ng/mL), GDF-11, reporter assay, conditioned media was 71 ng/mL.

B5: ActRIIB(23-131)-hFc (Fc fusion, not shown: a dimerising Fc or GST)
chain: EAETRECIYYNANWELERTNQSGLERCEGEQDKRLHCYASWRNSSGTIELVKKGCWLDDFNCYDRQECVATEENPQVYFCCCEGNFCNERFTHLPEAGGPEVTYEPPPT
**Q.** What does the source list for B5?
**A.** IC50 (ng/mL), Activin, reporter assay, conditioned media (Activin A [3]): 43 ng/mL; IC50 (ng/mL), GDF-11, reporter assay, conditioned media (GDF11 [4]): 60 ng/mL

B6: ActRIIB(24-131)-hFc (Fc fusion, not shown: a dimerising Fc or GST)
chain: AETRECIYYNANWELERTNQSGLERCEGEQDKRLHCYASWRNSSGTIELVKKGCWLDDFNCYDRQECVATEENPQVYFCCCEGNFCNERFTHLPEAGGPEVTYEPPPT
**Q.** Which results are given for B6?
**A.** IC50 (ng/mL), Activin, reporter assay, conditioned media (Activin A [3]): 105 ng/mL; IC50 (ng/mL), GDF-11, reporter assay, conditioned media (GDF11 [4]): 69 ng/mL

B7: ActRIIB-Fc A64 20-134 (Fc fusion, not shown: a dimerising Fc or GST)
chain: GRGEAETRECIYYNANWELERTNQSGLERCEGEQDKRLHCYASWANSSGTIELVKKGCWLDDFNCYDRQECVATEENPQVYFCCCEGNFCNERFTHLPEAGGPEVTYEPPPTAPT
**Q.** What does the source list for B7?
**A.** Activin Inhibition Activity, cell-based assay (KI) (Activin A [1]): 1000 nM; GDF11 Inhibition Activity, cell-based assay (KI) (GDF11 [2]): 1000 nM

B8: ActRIIB(20-132)-hFc (Fc fusion, not shown: a dimerising Fc or GST)
chain: GRGEAETRECIYYNANWELERTNQSGLERCEGEQDKRLHCYASWRNSSGTIELVKKGCWLDDFNCYDRQECVATEENPQVYFCCCEGNFCNERFTHLPEAGGPEVTYEPPPTA
**Q.** What does the source list for B8?
**A.** IC50 (ng/mL), Activin, reporter assay, conditioned media (Activin A [1]): 32 ng/mL; IC50 (ng/mL), GDF-11, reporter assay, conditioned media (GDF11 [2]): 87 ng/mL

B9: Soluble ActRIIB-Fc +15tail (Fc fusion, not shown: a dimerising Fc or GST)
chain: SGRGEAETRECIYYNANWELERTNQSGLERCEGEQDKRLHCYASWANSSGTIELVKKGCWLDDFNCYDRQECVATEENPQVYFCCCEGNFCNERFTHLPEAGGPEVTYEPPPTAPT
**Q.** With B9 as the binder, how does the Kd (GDF11 [5]) read?
**A.** Its Kd is 19 nM.
